Experimental data: patent publication US20140304853

Legend:
Test in all cases: cell_activity
ZFN 34480 (synthetic) = conditions: pair 34480/34481, A-genome; B 11946, D 11790; wheat protoplasts
ZFN 34457 (synthetic) = conditions: pair 34456/34457, A-genome; B 1716, D 10399; wheat protoplasts
ZFN 34472 (synthetic) = conditions: pair 34472/34473, A-genome; B 100300, D 87770; wheat protoplasts
ZFN 29730 (synthetic) = conditions: pair 29732/29730, D-genome, donor pDAS000152 10:1, SEC protoplasts; A 6717, B 6306
ZFN 34474 (synthetic) = conditions: pair 34474/34475, A-genome; B 251142, D 202711; wheat protoplasts
ZFN 34483 (synthetic) = conditions: pair 34482/34483, A-genome; B 33888, D 28719; wheat protoplasts
ZFN 34481 (synthetic) = conditions: pair 34480/34481, A-genome; B 11946, D 11790; wheat protoplasts
ZFN 34477 (synthetic) = conditions: pair 34476/34477, A-genome; B 56001, D 44459; wheat protoplasts
ZFN 34482 (synthetic) = conditions: pair 34482/34483, A-genome; B 33888, D 28719; wheat protoplasts
ZFN 34471 (synthetic) = conditions: pair 34470/34471, A-genome; B 156139, D 134694; wheat protoplasts
ZFN 34456 (synthetic) = conditions: pair 34456/34457, A-genome; B 1716, D 10399; wheat protoplasts
ZFN 29732 (synthetic) = conditions: pair 29732/29730, D-genome, donor pDAS000152 10:1, SEC protoplasts; A 6717, B 6306
ZFN 34476 (synthetic) = conditions: pair 34476/34477, A-genome; B 56001, D 44459; wheat protoplasts
ZFN 34473 (synthetic) = conditions: pair 34472/34473, A-genome; B 100300, D 87770; wheat protoplasts
ZFN 34470 (synthetic) = conditions: pair 34470/34471, A-genome; B 156139, D 134694; wheat protoplasts
ZFN 34478 (synthetic) = conditions: pair 34478/34479, A-genome; B 2731, D 3069; wheat protoplasts
ZFN 34475 (synthetic) = conditions: pair 34474/34475, A-genome; B 251142, D 202711; wheat protoplasts
ZFN 34479 (synthetic) = conditions: pair 34478/34479, A-genome; B 2731, D 3069; wheat protoplasts

Sequence: ACCATGGGGATGGAGTCGAGGAGNGCGT (double strand) [34480 site]
- activity (NHEJ events per million reads) (ZFN 34480 (synthetic)): 11800

Sequence: ACCTCCCCCGCCGTCGCATTCTCNGGCG (double strand) [34457 site]
- activity (NHEJ events per million reads) (ZFN 34457 (synthetic)): 12600

Sequence: ACGCCGACGCGGCCGGACGCGCGGGCGT (double strand) [34472 site]
- activity (NHEJ events per million reads) (ZFN 34472 (synthetic)): 120000

Sequence: AGGCAGCACGTGCTCCTGATGCGGGACT (double strand) [29730 site]
- activity (ppm NHEJ editing) (ZFN 29730 (synthetic)): 7910

Sequence: CAGACGCCGACGCGGCCGGACGCGCGGG (double strand) [34474 site]
- activity (NHEJ events per million reads) (ZFN 34474 (synthetic)): 248000

Sequence: CATCACGGGCCAGGTCCCCCGCCGCATG (double strand) [34483 site]
- activity (NHEJ events per million reads) (ZFN 34483 (synthetic)): 28700

Sequence: CCATCACGGGCCAGGTCCCCCGCCGCAT (double strand) [34481 site]
- activity (NHEJ events per million reads) (ZFN 34481 (synthetic)): 11800

Sequence: CCTCCGGCCCGGGGGCCACCAACCTCGT (double strand) [34477 site]
- activity (NHEJ events per million reads) (ZFN 34477 (synthetic)): 48300

Sequence: CGACCATGGGGATGGAGTCGAGGAGNGC (double strand) [34482 site]
- activity (NHEJ events per million reads) (ZFN 34482 (synthetic)): 28700

Sequence: CGTCGGCGTCTGCGTCGCCACCTCCGGC (double strand) [34471 site]
- activity (NHEJ events per million reads) (ZFN 34471 (synthetic)): 178000

Sequence: CNGCGGCCATGGCGGCGGCGAGGGTTTG (double strand) [34456 site]
- activity (NHEJ events per million reads) (ZFN 34456 (synthetic)): 12600

Sequence: GATCCCAAGCGGTGGTGCTTTCAAGGAC (double strand) [29732 site]
- activity (ppm NHEJ editing) (ZFN 29732 (synthetic)): 7910

Sequence: GCGACGCAGACGCCGACGCGGCCGGACG (double strand) [34476 site]
- activity (NHEJ events per million reads) (ZFN 34476 (synthetic)): 48300

Sequence: GCGTCGCCACCTCCGGCCCGGGGGCCAC (double strand) [34473 site]
- activity (NHEJ events per million reads) (ZFN 34473 (synthetic)): 120000

Sequence: GGCCGGACGCGCGGGCGTANCCGGACGC (double strand) [34470 site]
- activity (NHEJ events per million reads) (ZFN 34470 (synthetic)): 178000

Sequence: GGGATGGAGTCGAGGAGNGCGTCNGCGA (double strand) [34478 site]
- activity (NHEJ events per million reads) (ZFN 34478 (synthetic)): 3070

Sequence: GTCGCCACCTCCGGCCCGGGGGCCACCA (double strand) [34475 site]
- activity (NHEJ events per million reads) (ZFN 34475 (synthetic)): 248000

Sequence: TGGTCGCCATCACGGGCCAGGTCCCCCG (double strand) [34479 site]
- activity (NHEJ events per million reads) (ZFN 34479 (synthetic)): 3070
